Measured values published in patent publication US5574007A, “Polypeptide capable of interacting with thrombin” (Asahi Kasei Kogyo Kabushiki Kaisha, priority 1990, dated 1996).
Positions of bridges follow the written chain, without caps; N, C: chain ends. Residues, ends and D or L forms follow the SMILES beside them.

Tests used:
[1] = biological target: binding of thrombin to thrombomodulin (Homo sapiens, UniProt P00734); assay: Activity of synthetic peptides to inhibit the binding of thrombin to thrombomodulin (Dixon plot); details: D123Asp-coated plate, crosslinked synthetic peptide
Experimental: The acitvity of each of the synthetic peptides to inhibit the binding of thrombin to thrombomodulin is determined by the following method. D123Asp purified in Example 1-(4)-(b) is diluted with 0.1M sodium bicarbonate buffer (pH 9.2) so that the final concentration of D123Asp becomes 1.5 μg/ml. 100 μl of the diluent is dispensed to each well of a flat-bottomed 96 well-microtiter plate for ELISA. The plate is allowed to stand for 3 hours, and then each well is washed with 0.1M sodium bicarbonate buffer (pH 9.2). 150 μl of 50 mM Tris-HCl buffer (pH 7.5) containing 0.1M NaCl and 1% BSA is dispensed to each well, and the plate is allowed to stand for 2 hours so that each well is subjected to blocking. To each well of the plate is added a solution obtained by reacting thrombin (0 to 0.4 μg/μl), which has been diluted with a washing solution {50 mM Tris-HCl buffer (pH 7.5) containing 0.5% BSA and 0.05% Tween-20}, with various concentrations of the synthetic peptide solutions at 37° C. for 30 minutes, and a reaction is conducted at room temperature for 1 hour. The plate is washed again with the above-mentioned washing solution. To each well of the plate is added 100 μl of 50 mM Tris-HCl buffer (pH 8.0) containing 0.1M NaCl, in which 200 μM H-D-Phe-Pip-Arg-pNA (Kabi Virum, Sweden, catalog No. S2238) has been dissolved, to thereby liberate pNA (paranitroanilin). A few hours later, the absorbance of the liberated pNA is measured at a wavelength of 410 nm. To determine the inhibition constant (Ki) of each of the synthetic peptides, 100/v in which v represents the thrombin activity (expressed in %) at the time when a peptide having a predetermined concentration is added, assuming the thrombin activity in the absence of a peptide as 100%, is plotted in rectangular coordinates against the concentration of the peptide to-obtain a graph (Dixon plot). The inhibition constant (Ki) is defined as the reading of the intersection of the plotted line with the abscissa.

[2] = biological target: T1, thrombin-catalyzed activation of GDPC (protein C having no Gla domain) (Homo sapiens, UniProt P00734); assay: Same assay with protein C having no Gla domain (GDPC) instead of protein C; format: biochemical; details: calcium ion concentrations of 0 to 5 mM
T1 construct: 3 μl of thrombin (manufactured and sold by Sigma Chemical Company, catalog No. T-6759, 20 ng/μl); purchased Sigma Chemical Company T-6759
Experimental: (§1) With respect to the polypeptide solutions (0.4 μg/ml) purified and quantitated in Example 1-(5)-(d), the activity of polypeptides to promote the thrombin-catalyzed activation of protein C is measured according to the method described in Example 1-(3). The CaCl2 concentration of 10×Assay buffer is adjusted so that the activities at calcium ion concentrations of 0 to 5 mM are determined. Also, with respect to protein C having no Gla domain (hereinafter referred to as "GDPC") which is prepared by chymotrypsin treatment according to the method of N. L. Esmon [J. Biol. Chem. Vol. 258, pp. 5548-5553 (1983)]and which is used instead of protein C, the activity measurement is carried out within the same range of calcium concentration.

[3] = biological target: thrombin-catalyzed activation of protein C (Homo sapiens, UniProt P00734); assay: Assay of the activity to promote the thrombin-catalyzed activation of protein C (Example 1-(3), fluorogenic substrate Boc-Leu-Ser-Thr-Arg-MCA); format: biochemical, bovine; set-up: 3 μl of thrombin (manufactured and sold by Sigma Chemical Company, catalog No. T-6759, 20 ng/μl); purchased Sigma Chemical Company T-6759; details: for activity to promote the thrombin-catalyzed activation of protein C (in words): purified polypeptide from COS-1, calcium ion concentrations of 0 to 5 mM
Experimental: 5 μl of the supernatant of the culture of COS-1 cells is transformed by each of plasmids pSV2TMD7 and pSV2TMD8, 3 μl of thrombin (manufactured and sold by Sigma Chemical Company, catalog No. T-6759, 20 ng/μl), 5 μl of 10×Assay Buffer containing 1M NaCl, 30 mM CaCl2, 1% calf serum albumin and 0.5M tris-HCl buffer (pH 8.5) and 29.5 μl of distilled water are mixed together and allowed to stand at 37° C. for 5 minutes, followed by the addition of 7.5 μl protein C (derived from bovine, 0.2 μg/μl) to the mixture. The reaction is conducted at 37° C. for 30 minutes, and terminated by adding 6.25 μl of a stop solution (20 mM tris-HCl buffer, pH7.5, containing 100 mM NaCl, 0.3A280 anti-thrombin III and 100 μg/ml heparin).
The activity of activated protein C is measured by first adding 10 μl of Boc-Leu-Ser-Thr-Arg-MCA (manufactured and sold by Peptide Institute, The Foundation (Japan), 5 mg/ml), 5 μl of 5M CsCl and 495 μl of a substrate reaction buffer (50 mM tris-HCl buffer containing 100 mM NaCl (pH 8.5)), next allowing the reaction to proceed at 37° C. for 20 minutes, then terminating the reaction by adding 55 μl of acetic acid, and finally measuring the concentration of liberated AMC ([…]) by means of a spectrofluorometer (model RF-540, manufactured and sold by Shimadzu Corporation, Japan) at an excitation wavelength of 380 nm and an emission wavelength of 440 nm. The obtained fluorescence intensity is compared with the fluorescence intensity of a solution having a known AMC concentration to determine the amount of the liberated AMC. The value obtained by deducting from this amount the amount of AMC in the case where an aqueous solution containing no polypeptide of the present invention is added, represents the activity of the polypeptide to promote the thrombin-catalyzed activation of protein C. The activity to produce 1 nM of activated protein C per ml of reaction mixture and per minute is defined as 1 u (unit).
as §1

Molecule	Inhibition constant (Ki) [1]	activity to promote the thrombin-catalyzed activation of protein C (in words) [3]	also measured
CSCC[C@H](N)C(=O)N[C@@H](Cc1ccccc1)C(=O)N[C@H]1CSSC[C@@H](C(=O)N[C@@H](CC(=O)O)C(=O)O)NC(=O)[C@H](CC(=O)O)NC(=O)[C@H](C)NC(=O)[C@@H]2CCCN2C(=O)[C@H](C)NC(=O)[C@H](C)NC(=O)[C@H]([C@@H](C)O)NC(=O)[C@H](CCC(N)=O)NC(=O)[C@H](CC(N)=O)NC1=O [Polypeptide A, Met-Phe-Cys-Asn-Gln-Thr-Ala-Ala-Pro-Ala-Asp-Cys-Asp] (H-MFCNQTAAPADCD-OH; disulfide 3-12)	no inhibiting activity	–	–
C[C@H](N)C(=O)N[C@H]1CSSC[C@@H](C(=O)N[C@@H](CCC(=O)O)C(=O)O)NC(=O)[C@H](CO)NC(=O)[C@H](C)NC(=O)[C@H](CCC(N)=O)NC(=O)[C@H]([C@@H](C)O)NC(=O)[C@H](CC(N)=O)NC(=O)[C@@H]2CCCN2C(=O)[C@H](CC(=O)O)NC(=O)[C@H](C)NC(=O)[C@H](CC(=O)O)NC(=O)[C@H](C)NC(=O)[C@@H]2CCCN2C1=O [Polypeptide B, Ala-Cys-Pro-Ala-Asp-Ala-Asp-Pro-Asn-Thr-Gln-Ala-Ser-Cys-Glu] (H-ACPADADPNTQASCE-OH; disulfide 2-14)	no inhibiting activity	–	–
CC[C@H](C)[C@H](NC(=O)[C@H](CC(=O)O)NC(=O)[C@@H](NC(=O)[C@@H]1CSSC[C@H](NC(=O)[C@@H](N)CCC(=O)O)C(=O)N2CCC[C@H]2C(=O)N[C@@H](CCC(=O)O)C(=O)NCC(=O)N[C@@H](Cc2ccc(O)cc2)C(=O)N[C@@H]([C@@H](C)CC)C(=O)N[C@@H](CC(C)C)C(=O)N[C@@H](CC(=O)O)C(=O)N[C@@H](CC(=O)O)C(=O)NCC(=O)N[C@@H](Cc2ccccc2)C(=O)N[C@@H]([C@@H](C)CC)C(=O)N1)[C@@H](C)O)C(=O)N[C@@H](CC(=O)O)C(=O)N[C@@H](CCC(=O)O)C(=O)O [Polypeptide C, Glu-Cys-Pro-Glu-Gly-Tyr-Ile-Leu-Asp-Asp-Gly-Phe-Ile-Cys-Thr-Asp-Ile-Asp-Glu] (H-ECPEGYILDDGFICTDIDE-OH; disulfide 2-14)	–	–	Ki ([1]; read-out: Inhibition constant (Ki)): 95 µM
D123Ala: polypeptide up to the 516th position of human thrombomodulin wherein the 367th Asp is changed to Ala (pSV2TMM1)	–	low activity	activity in the activation of GDPC (in words) [2]: low activity
D123Glu: polypeptide up to the 516th position of human thrombomodulin wherein the 367th Asp is changed to Glu (pSV2TMM2)	–	activity similar to that of D123Asp	activity relative to that of D123Asp ([3]; activation of protein C): 1.2 times
